Source: patent US20250237662A1

Columns and labels:
[1] = target: humanized development candidate monoclonal antibody IgG4 (hIgG4); test: Gyrolab, mAb as capture, hIgG4 8 ng/ml
[2] = target: humanized development candidate monoclonal antibody IgG4 (hIgG4); test: Gyrolab, mAb as capture, hIgG4 40 ng/ml
[3] = target: humanized development candidate monoclonal antibody IgG4 (hIgG4); test: Gyrolab, mAb as capture, hIgG4 1.6 ng/ml
[4] = target: humanized development candidate monoclonal antibody IgG4 (hIgG4); test: Gyrolab, mAb as capture, hIgG4 200 ng/ml
[5] = target: humanized development candidate monoclonal antibody IgG4 (hIgG4); test: Gyrolab, mAb as capture, hIgG4 0.32 ng/ml
[6] = target: humanized development candidate monoclonal antibody IgG4 (hIgG4); test: Gyrolab, mAb as capture, hIgG4 1000 ng/ml
[7] = target: humanized development candidate monoclonal antibody IgG4 (hIgG4); test: Gyrolab, mAb as capture, hIgG4 5000 ng/ml
[8] = target: humanized therapeutic monoclonal antibody IgG1 (hIgG1); test: direct ELISA, hIgG1 coated, B-cell culture medium
[9] = target: humanized development candidate monoclonal antibody IgG4 (hIgG4); test: direct ELISA, hIgG4 coated, B-cell culture medium
[10] = target: cynomolgus monkey IgG (cynoIgG); test: direct ELISA, cynoIgG coated (hIgG1/CynoIgG screen), B-cell culture medium
[11] = target: cynomolgus monkey IgG (cynoIgG); test: direct ELISA, cynoIgG coated (hIgG4/CynoIgG screen), B-cell culture medium
[12] = target: humanized development candidate monoclonal antibody IgG4 (hIgG4); test: SPR (Biacore T200), mAb captured by anti-rabbit mAb on CM5, antigen 80-0 nM, 1:1 fit
[13] = target: humanized therapeutic monoclonal antibody IgG1 (hIgG1); test: as above
[14] = target: internal research reagent human Fab (hFab); test: as above
[15] = target: humanized development candidate monoclonal antibody IgG4 (hIgG4); test: Gyrolab, mAb as capture, hIgG4 8 ng/ml, against the blank
[16] = target: humanized development candidate monoclonal antibody IgG4 (hIgG4); test: Gyrolab, mAb as capture, hIgG4 40 ng/ml, against the blank
[17] = target: humanized development candidate monoclonal antibody IgG4 (hIgG4); test: Gyrolab, mAb as capture, hIgG4 1.6 ng/ml, against the blank
[18] = target: humanized development candidate monoclonal antibody IgG4 (hIgG4); test: Gyrolab, mAb as capture, hIgG4 200 ng/ml, against the blank
[19] = target: humanized development candidate monoclonal antibody IgG4 (hIgG4); test: Gyrolab, mAb as capture, hIgG4 0.32 ng/ml, against the blank
[20] = target: humanized development candidate monoclonal antibody IgG4 (hIgG4); test: Gyrolab, mAb as capture, hIgG4 1000 ng/ml, against the blank
[21] = target: humanized development candidate monoclonal antibody IgG4 (hIgG4); test: Gyrolab, mAb as capture, hIgG4 5000 ng/ml, against the blank
[22] = target: humanized therapeutic monoclonal antibody IgG1 (hIgG1); test: ELISA, medium of transfected HEK293F; signal on hIgG1 over signal on cynoIgG
[23] = target: humanized development candidate monoclonal antibody IgG4 (hIgG4); test: ELISA, medium of transfected HEK293F; signal on hIgG4 over signal on cynoIgG
[24] = target: humanized development candidate monoclonal antibody IgG4 (hIgG4); test: Gyrolab immunoassay quality control, biotinylated 16F5 as capture, hIgG4 in matrix with 4% cynomolgus monkey serum, Alexa Fluor 647 goat anti-human IgG detection

B1: rabbit anti-human IgG monoclonal antibody clone 11F9 (antibody, V domains shown)
VH: QQQLEESGGGLVQPEGSLTLTCIASGFSFSSSHWICWVRQAPGKGLEWIACMSTSSGSTYDANWAKGRFTISKTSSTTVTLQMTSLTAADTATYFCARDVGGSTTYFDLWGPGTLVTVSS
VL: AYDMTQTPASVSEPVGGTVTIKCQASQSISNELSWYQQKPGQPPKLLIYRASTLASGVPSRFKGSGSGTQFTLTINGVECADAATYYCQQGYSISNVDNTFGGGTEVVVKG
An Av. Resp. [1] of 12.8, an Av. Resp. [2] of 45.1 and an Av. Resp. [3] of 5 were found for B1 in this work. The Av. Resp. [4] was 148, the Av. Resp. [5] was 3.1 and the Av. Resp. [6] was 289. For the same binder, the Av. Resp. [7] was 330, the OD450 [8] was 1.11 OD450 and the OD450 [9] was 0.91 OD450. For the same binder, the OD450 [10] was 0.089 OD450, the OD450 [11] was 0.092 OD450 and the Kd [12] was 0.279 nM. It also gave a Kd [13] of 0.619 nM and a Kd [14] of 1.12 nM.

B2: rabbit anti-human IgG monoclonal antibody clone 19B1 (antibody, V domains shown)
VH: QEQLVESGGGLVQPEGSLTLTCTASGFSFSDSYYMCWVRQAPGKGLEWIACIYGGTITNTYYASWAKGRFTISKTSSTTVTLQMTSLTAADTATYFCARDLGAAGDAYNLWGPGTLVTVSS
VL: ASDMTQTPASVSEPVGGTVTIKCQASENIYSSLAWYQQKPGQPPKLLIYDASNLASGVPSRFSGSGSGTEFTLTISDLECADAATYYCQCTYRSSSSSYAFGGGTEVVVKG
An Av. Resp. [1] of 6.2, an Av. Resp. [2] of 22.8 and an Av. Resp. [3] of 2.7 were found for B2 in this work. For the same binder, the Av. Resp. [4] was 82.9, the Av. Resp. [5] was 1.8 and the Av. Resp. [6] was 203. It also gave an Av. Resp. [7] of 246, an OD450 [8] of 1.15 OD450 and an OD450 [9] of 0.954 OD450. The OD450 [10] was 0.055 OD450, the OD450 [11] was 0.102 OD450 and the Kd [12] was 0.067 nM. It also gave a Kd [13] of 0.239 nM and a Kd [14] of 0.54 nM.

B3: rabbit anti-human IgG monoclonal antibody clone 9E6 (antibody, V domains shown)
VH: QSLEESGGDLVKPGASLTLTCKASGFDFSSSYYMCWVRQAPGRLEWIACIYGGGLSNTYYAGWAKGRFTISKTSSTTVTLQMTSLTVADTATYFCARDAGTSGDYLNLWGPGTLVTVSS
VL: AVVMTQTASPVSGAVGGTVTINCQASQSISSSYLSWYQQKPGQPPKLLIYGASTLASGVPSRFKGSGSGTQFTLTISGVQCDDAATYYCAYDAYRLSSPDNIFGGGTEVVVKG
An Av. Resp. [1] of 8.6, an Av. Resp. [2] of 28.4 and an Av. Resp. [3] of 4.1 were found for B3 in this work. It also gave an Av. Resp. [4] of 103, an Av. Resp. [5] of 3 and an Av. Resp. [6] of 256. It also gave an Av. Resp. [7] of 327, an OD450 [8] of 1.28 OD450 and an OD450 [9] of 1.28 OD450. It also gave a S/B [15] of 3, a S/B [16] of 9.8 and a S/B [17] of 1.4. For the same binder, the S/B [18] was 35.5, the S/B [19] was 1.1 and the S/B [20] was 88.2. For the same binder, the S/B [21] was 113, the OD450 [10] was 0.14 OD450 and the OD450 [11] was 0.146 OD450. For the same binder, the ELISA signal ratio hIgG1/CynoIgG [22] was 10.2, the ELISA signal ratio hIgG4/CynoIgG [23] was 9.53 and the Kd [12] was 0.196 nM. It also gave a koff [12] of 2.68e-05 s⁻¹, a kon [12] of 137000 M⁻¹ s⁻¹ and a Kd [13] of 0.426 nM. The koff [13] was 6.1e-05 s⁻¹, the kon [13] was 143000 M⁻¹ s⁻¹ and the Kd [14] was 0.518 nM. It also gave a koff [14] of 0.00603 s⁻¹ and a kon [14] of 1.16e+07 M⁻¹ s⁻¹.

B4: rabbit anti-human IgG monoclonal antibody clone 16F5 (antibody, V domains shown)
VH: QQQLEESGGGLVKPGGTLTLTCKASGIDFSNYYYMCWVRQAPGKGLELIACIYTGSSGSTWYATWAKGRFTISKTSSTTVTLQMTSLTAADTATYFCARDRDVGSLYDSLDLWGQGTLVTVSP
VL: AYDMTQTPASVEAAVGGTVTINCQASQSINNWLSWYQQKPGQRPKLLIYQASTLASGVSSRFKGSGSGTHFTLTISDLECADAATYYCQQGWSIDDIDNAFGGGTEVVVKG
An Av. Resp. [1] of 18.5, an Av. Resp. [2] of 64.2 and an Av. Resp. [3] of 7 were found for B4 in this work. For the same binder, the Av. Resp. [4] was 197, the Av. Resp. [5] was 4.4 and the Av. Resp. [6] was 369. The Av. Resp. [7] was 385, the OD450 [8] was 1.39 OD450 and the OD450 [9] was 1.37 OD450. It also gave a S/B [15] of 4.7, a S/B [16] of 16.4 and a S/B [17] of 1.8. For the same binder, the S/B [18] was 50.5, the S/B [19] was 1.1 and the S/B [20] was 94.4. For the same binder, the S/B [21] was 98.6, the OD450 [10] was 0.184 OD450 and the OD450 [11] was 0.154 OD450. It also gave an ELISA signal ratio hIgG1/CynoIgG [22] of 5.9, an ELISA signal ratio hIgG4/CynoIgG [23] of 6.33 and a Kd [12] of 0.514 nM. The koff [12] was 8.09e-05 s⁻¹, the kon [12] was 157000 M⁻¹ s⁻¹ and the Kd [13] was 0.127 nM. It also gave a koff [13] of 2.21e-05 s⁻¹, a kon [13] of 173000 M⁻¹ s⁻¹ and a Kd [14] of 1.93 nM. The koff [14] was 0.00584 s⁻¹, the kon [14] was 3.02e+06 M⁻¹ s⁻¹ and the Average Response (HQC, expected conc 750 ng/mL) [24] was 414. For the same binder, the Average Response (LQC, expected conc 40.0 ng/mL) [24] was 70.3, the Average Response (MQC, expected conc 0.600 ng/mL) [24] was 5.85 and the Response (HQC, expected conc 750 ng/mL, CD struct C1) [24] was 400. For the same binder, the Response (HQC, expected conc 750 ng/mL, CD struct C2) [24] was 427, the Response (LQC, expected conc 40.0 ng/mL, CD struct C3) [24] was 68.6 and the Response (LQC, expected conc 40.0 ng/mL, CD struct C4) [24] was 72. The Response (MQC, expected conc 0.600 ng/mL, CD struct C5) [24] was 5.88, the Response (MQC, expected conc 0.600 ng/mL, CD struct C6) [24] was 5.83 and the S/B (HQC, expected conc 750 ng/mL, CD struct C1) [24] was 87.7. The S/B (HQC, expected conc 750 ng/mL, CD struct C2) [24] was 93.6, the S/B (LQC, expected conc 40.0 ng/mL, CD struct C3) [24] was 15 and the S/B (LQC, expected conc 40.0 ng/mL, CD struct C4) [24] was 15.8. It also gave a S/B (MQC, expected conc 0.600 ng/mL, CD struct C5) [24] of 1.29 and a S/B (MQC, expected conc 0.600 ng/mL, CD struct C6) [24] of 1.28.
